In patent publication US20220144940A1 (VIELA BIO, published 2022):

Assays:
[1] = target: T1, recombinant human ILT7 protein (human, UniProt P59901 24-446, limits assumed); test: BIAcore SPR, IgG captured on chip, ILT7 protein as analyte, 1:1 model
T1 construct: Soluble recombinant protein used in ProteOn and BIAcore SPR; also called rILT7; Soluble Recombinant Human ILT7
Description: (§1) BIAcore (surface plasmon resonance) was used to measure the kinetic rate (kₒₙ, koff) constants for the binding of afucosylated IgG₁ ILT70137 to human ILT7 protein using an IgG-capture assay format. The binding of each concentration of a two-fold dilution series of the ILT7 protein was recorded after first capturing IgG onto the sensor chip surface, followed by either the ILT7 protein or instrument buffer. In between each pair of injections, the IgG capture surface was regenerated. Individual association and dissociation rate constants were then calculated from the resulting binding curves using the Biaevaluation software available through the vendor's software employing a 1:1 fitting model, which included a term to correct for mass transport limited binding, should it be detected. […] The individual errors for kₒₙ and koff were low, and the overall fit to the data was good as judged by Chi2 values of ˜1% of the calculated Rₘₐₓ (maximum response).

cynomolgus ILT7 [2] = target: T2, cynomolgus ILT7 (cynomolgus, UniProt P59901 24-499 (human entry)); test: flow cytometry (MFI) on cell line stably expressing cynomolgus monkey ILT7
T2 construct: also called cyno ILT7; cynomolgus monkey ILT7
Description: (§2) Binding of afucosylated ILT70137 to ILT7 was determined using cell lines stably expressing human or cynomolgus monkey ILT7. The mean fluorescence intensity of cell-bound antibodies was assessed by flow cytometry. Cells were incubated with increasing concentrations of test antibody ranging from 0.004 to 333.3 nM for 30 minutes at 4° C. After incubation, cells were washed with cold PBS and incubated for 30 minutes at 4° C. with an anti-human-Alexa Fluor 647 antibody. Fluorescent intensity was then determined by FACS and EC₅₀ values were calculated using a non-linear fit equation in GraphPad Prism 6 software.

human ILT7 [3] = target: T3, human ILT7 (human, UniProt P59901 24-499); test: flow cytometry (MFI) on cell line stably expressing human ILT7
T3 construct: whole, on cells; also called LIRA4; LILRA4
Description: as §2

cynomolgus ILT7 [4] = target: T2, cynomolgus ILT7; test: cell-based or functional assay
human ILT7 [5] = target: T3, human ILT7; test: cell-based or functional assay
[6] = target: T1, recombinant human ILT7 protein; test: BIAcore SPR, IgG captured on chip, ILT7 protein as analyte, koff/kon
Description: as §1

T1 sequence (P59901 24-446 limits assumed): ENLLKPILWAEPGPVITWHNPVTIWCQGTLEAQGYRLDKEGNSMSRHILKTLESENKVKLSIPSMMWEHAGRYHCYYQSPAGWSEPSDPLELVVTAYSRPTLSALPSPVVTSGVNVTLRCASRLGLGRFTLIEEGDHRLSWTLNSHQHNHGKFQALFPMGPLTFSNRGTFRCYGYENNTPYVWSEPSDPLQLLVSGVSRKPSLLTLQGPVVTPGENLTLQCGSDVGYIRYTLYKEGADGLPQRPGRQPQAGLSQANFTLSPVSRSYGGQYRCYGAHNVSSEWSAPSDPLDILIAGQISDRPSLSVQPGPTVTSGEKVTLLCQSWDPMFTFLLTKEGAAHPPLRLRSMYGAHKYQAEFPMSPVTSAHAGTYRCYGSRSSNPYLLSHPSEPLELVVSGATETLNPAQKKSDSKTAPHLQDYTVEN
T2 sequence (P59901 other isoform, or with tags, fused parts or gaps limits assumed): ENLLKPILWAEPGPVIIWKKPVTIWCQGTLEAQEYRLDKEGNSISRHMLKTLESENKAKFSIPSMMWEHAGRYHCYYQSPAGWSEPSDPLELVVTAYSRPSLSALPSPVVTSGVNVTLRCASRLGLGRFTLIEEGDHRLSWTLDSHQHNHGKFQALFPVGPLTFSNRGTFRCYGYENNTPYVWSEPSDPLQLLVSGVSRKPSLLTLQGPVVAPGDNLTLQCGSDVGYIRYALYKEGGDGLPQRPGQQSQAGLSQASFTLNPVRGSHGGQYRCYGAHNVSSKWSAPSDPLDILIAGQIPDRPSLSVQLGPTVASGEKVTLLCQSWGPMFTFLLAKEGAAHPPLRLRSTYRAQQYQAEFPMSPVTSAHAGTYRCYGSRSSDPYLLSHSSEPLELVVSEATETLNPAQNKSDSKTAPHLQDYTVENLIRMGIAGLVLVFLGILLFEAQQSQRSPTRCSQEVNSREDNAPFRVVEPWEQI
T3 sequence (P59901 24-499): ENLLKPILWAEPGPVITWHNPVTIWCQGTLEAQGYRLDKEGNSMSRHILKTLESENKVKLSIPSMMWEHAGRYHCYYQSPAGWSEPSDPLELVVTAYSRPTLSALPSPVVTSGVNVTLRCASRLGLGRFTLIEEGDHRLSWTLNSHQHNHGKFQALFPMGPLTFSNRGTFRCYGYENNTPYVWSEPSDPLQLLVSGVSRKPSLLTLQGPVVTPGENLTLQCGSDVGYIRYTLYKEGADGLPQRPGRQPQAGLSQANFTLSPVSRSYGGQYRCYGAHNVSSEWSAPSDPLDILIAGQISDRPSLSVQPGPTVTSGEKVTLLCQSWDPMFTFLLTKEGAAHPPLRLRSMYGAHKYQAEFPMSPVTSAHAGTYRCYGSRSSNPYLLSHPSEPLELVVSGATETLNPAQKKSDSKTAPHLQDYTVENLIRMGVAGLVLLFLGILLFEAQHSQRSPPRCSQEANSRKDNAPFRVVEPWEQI

koff [1]: 0.0318 s⁻¹
kon [1]: 186000 M⁻¹ s⁻¹
EC50 (cynomolgus ILT7 [2]): 2.15 nM
EC50 (human ILT7 [3]): 0.303 nM
ADCC EC50 (cynomolgus ILT7 [4]): 0.00189 nM
ADCC EC50 (human ILT7 [5]): 0.00419 nM
Kd [6]: 171 nM
B1: afucosylated IgG1 ILT70137 (antibody, V domains shown)
VH: QVQLQQSGAEVKKPGASVKVSCKASGYTFTSYGISWVRQAPGQGLEWMGWISAYNGNTNYAQKLQGRVTMTTDTSTSTAYMELRSLRSDDTAVYYCARNGLWGWDSDAFDIWGRGTLVTVSS
VL: QSALTQPASVSGSPGQSITISCTGTSSDVGGYNYVSWYQQHPGKAPKLMIYDVSNRPSGVSNRFSGSKSGNTASLTISGLQAEDEADYYCSSYTSSSTVVFGGGTKVTVL
modifications: afucosylated (made as in Example 7: lacks the α-1,6 fucose moiety on the N-glycan at Asn-297 of the heavy chain)
notes: also called afucosylated ILT70137; Afuc IgG1 ILT70137
